Results published in patent US11814447B2, “Peptide ligands for binding to EphA2” (BICYCLERD LIMITED, priority 2018, dated 2023).
Starred links: 1 amine or outer side, 2 acyl side, 3 side chain; linkers in the order of their positions; H or OH if unused. Positions of bridges follow the written chain, without caps; N, C: chain ends. Non-standard residues stand in square brackets, D forms with d. Primed or numbered codes have the meaning given here. No end group written: not given here. TBMB′ = 1,3,5-tris(bromomethyl)benzene, 1,3,5-tris(methylene)benzene core, three thioethers to Cys; 4BenzylPro = 4-benzyl-pyrrolidine-2-carboxylic acid; Dip = N[C@H](C(=O)O)C(c1ccccc1)c1ccccc1; 1Nal = N[C@@H](Cc1cccc2ccccc12)C(=O)O; TBMB = c1c(C[*:1])cc(C[*:3])cc1C[*:2]; Ala(cPr) = N[C@@H](CC1CC1)C(=O)O; hArg = N=C(N)NCCCC[C@H](N)C(=O)O; Gly(cPr) = N[C@H](C(=O)O)C1CC1; Cba = N[C@@H](CC1CCC1)C(=O)O; Tle = CC(C)(C)[C@H](N)C(=O)O; Ac5c = NC1(C(=O)O)CCCC1; Ac4c = NC1(C(=O)O)CCC1; Ac3c = NC1(C(=O)O)CC1; Aib = CC(C)(N)C(=O)O; Sar = CNCC(=O)O

The binders below were run against T1, Human EphA2 (Ecto) (Human, UniProt P29317 24-537) (assay: FP competition, tracer Compound 18).
T1 construct: extracellular domain
T1 sequence (P29317 24-537): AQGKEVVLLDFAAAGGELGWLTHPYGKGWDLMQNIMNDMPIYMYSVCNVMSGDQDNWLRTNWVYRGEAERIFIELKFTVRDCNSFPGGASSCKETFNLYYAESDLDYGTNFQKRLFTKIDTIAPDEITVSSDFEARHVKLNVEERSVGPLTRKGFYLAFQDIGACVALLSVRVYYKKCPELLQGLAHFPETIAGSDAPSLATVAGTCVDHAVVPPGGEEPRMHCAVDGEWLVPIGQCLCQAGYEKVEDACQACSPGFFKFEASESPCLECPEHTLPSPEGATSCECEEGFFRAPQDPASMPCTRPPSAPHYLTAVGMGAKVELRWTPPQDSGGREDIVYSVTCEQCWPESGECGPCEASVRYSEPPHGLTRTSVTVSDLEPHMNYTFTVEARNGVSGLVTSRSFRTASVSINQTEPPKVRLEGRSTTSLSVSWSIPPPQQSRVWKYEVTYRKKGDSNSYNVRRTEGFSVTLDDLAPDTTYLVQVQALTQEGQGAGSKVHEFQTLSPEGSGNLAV
Method: Peptides without a fluorescent tag were tested in competition with a peptide with a fluorescent tag and a known Kd (Table 2). Peptides were diluted to an appropriate concentration in assay buffer as described in the direct binding assay with a maximum of 5% DMSO, then serially diluted 1 in 2. […] Measurements were conducted as for the direct binding assay, however the gain was determined prior to the first measurement. Data analysis was in Systat Sigmaplot version 12.0 where the mP values were fit to a user defined cubic equation to generate a Ki value: […]

| Binder | Ki |
| --- | --- |
| Ac-[Sar][Sar]ADVTCPWGPFWCPVNRPGC (linker 7-14-21 via TBMB′) [Bicycle Compound 157] | 0.91 nM |
| Ac-[Sar][Sar]ADVHCPWGPFWCPVNRPGC (linker 7-14-21 via TBMB) [Bicycle Compound 148] | 1.2 nM |
| Ac-[Sar][Sar]A[dD][dD]TCPWGPFWCPVNRPGC (linker 7-14-21 via TBMB′) [Bicycle Compound 159] | 2.85 nM |
| Ac-[Sar][Sar]A[dD]VTCPWGPNWCPVNRPGC (linker 7-14-21 via TBMB′) [Bicycle Compound 172] | 3.96 nM |
| Ac-[Sar][Sar]A[dD]VTCPWGPFWCPLNRPGC (linker 7-14-21 via TBMB′) [Bicycle Compound 174] | 9.1 nM |
| Ac-[Sar][Sar][dH]DVPCPWGPFWCPVNRPGC (linker 7-14-21 via TBMB) [Bicycle Compound 224] | 1.09 nM |
| ADVHCP[Dip]GPFWCPVNRPGCA (linker 5-12-19 via TBMB) [Bicycle Compound 149] | 52.8 nM |
| ADVHCP[1Nal]GPFWCPVNRPGCA (linker 5-12-19 via TBMB) [Bicycle Compound 150] | 0.12 nM |
| ADVHCPWG[Aib]FWCPVNRPGCA (linker 5-12-19 via TBMB′) [Bicycle Compound 153] | 0.51 nM |
| Ac-[Sar][Sar]A[dD][Cba]TCPWGPFWCPVNRPGC (linker 7-14-21 via TBMB′) [Bicycle Compound 160] | 2.6 nM |
| Ac-[Sar][Sar]A[dD][Ala(cPr)]TCPWGPFWCPVNRPGC (linker 7-14-21 via TBMB′) [Bicycle Compound 161] | 4.44 nM |
| Ac-[Sar][Sar]A[dD][Gly(cPr)]TCPWGPFWCPVNRPGC (linker 7-14-21 via TBMB′) [Bicycle Compound 162] | 2.55 nM |
| Ac-[Sar][Sar]AD[Tle]TCPWGPFWCPVNRPGC (linker 7-14-21 via TBMB′) [Bicycle Compound 164] | 2.25 nM |
| Ac-[Sar][Sar]A[dD]VTC[Ac3c]WGPFWCPVNRPGC (linker 7-14-21 via TBMB′) [Bicycle Compound 165] | 185 nM |
| Ac-[Sar][Sar]A[dD]VTC[Ac4c]WGPFWCPVNRPGC (linker 7-14-21 via TBMB′) [Bicycle Compound 166] | 76.7 nM |
| Ac-[Sar][Sar]A[dD]VTC[Ac5c]WGPFWCPVNRPGC (linker 7-14-21 via TBMB′) [Bicycle Compound 167] | 138 nM |
| Ac-[Sar][Sar]A[dD]VTC[4BenzylPro]WGPFWCPVNRPGC (linker 7-14-21 via TBMB′) [Bicycle Compound 168] | 5.03 nM |
| Ac-[Sar][Sar]A[dD]VTCP[1Nal]GPFWCPVNRPGC (linker 7-14-21 via TBMB′) [Bicycle Compound 170] | 0.6 nM |
| Ac-[Sar][Sar]A[dD]VTCPWGP[hArg]WCPVNRPGC (linker 7-14-21 via TBMB′) [Bicycle Compound 171] | 4.88 nM |
| Ac-[Sar][Sar]A[dD]VTCPWGPFWCPVNR[Aib][dD]C (linker 7-14-21 via TBMB′) [Bicycle Compound 177] | 4.43 nM |
| Ac-[Sar][Sar]A[dD]VTCP[1Nal]G[Aib]FWCPVNR[Aib]GC (linker 7-14-21 via TBMB′) [Bicycle Compound 178] | 2.4 nM |
| Ac-[Sar][Sar]H[dD]VPCP[1Nal]G[Aib]FWCPVNR[Aib]GC (linker 7-14-21 via TBMB) [Bicycle Compound 266] | 1.6 nM |
| Ac-[Sar][Sar]A[dD]VTCPWG[Aib]F[1Nal]CPVNR[Aib]GC (linker 7-14-21 via TBMB′) [Bicycle Compound 179] | 2.94 nM |
| Ac-[Sar][Sar]H[dD]VPCPWG[Aib]F[1Nal]CPVNR[Aib]GC (linker 7-14-21 via TBMB) [Bicycle Compound 268] | 1.24 nM |

| Binder | Ki |
| --- | --- |
| Ac-[Sar][Sar]A[dD]VTCPWG[Aib]FWCP[Tle]NR[Aib]GC (linker 7-14-21 via TBMB′) [Bicycle Compound 180] | 3.83 nM |
| Ac-[Sar][Sar]H[dD]VPCPWG[Aib]FWCP[Tle]NR[Aib]GC (linker 7-14-21 via TBMB) [Bicycle Compound 270] | 1.52 nM |
| Ac-[Sar][Sar]A[dD]VTCP[1Nal]G[Aib]F[1Nal]CPVNR[Aib]GC (linker 7-14-21 via TBMB′) [Bicycle Compound 181] | 1.37 nM |
| Ac-[Sar][Sar]H[dD]VPCP[1Nal]G[Aib]F[1Nal]CPVNR[Aib]GC (linker 7-14-21 via TBMB) [Bicycle Compound 261] | 0.63 nM |
| [dD]VTCPWGPFWCPVNRPGC (linker 4-11-18 via TBMB) [Bicycle Compound 185] | 2.17 nM |
| [dD]VTCP[1Nal]G[Aib]F[1Nal]CP[Tle]NR[Aib]GC (linker 4-11-18 via TBMB′) [Bicycle Compound 186] | 1.34 nM |
| AHDVPCP[1Nal]GPFWCPVNRPGCA (linker 6-13-20 via TBMB′) [Bicycle Compound 187] | 0.32 nM |
| AHDVPCP[1Nal]GPFWCPVNRPGC (linker 6-13-20 via TBMB) [Bicycle Compound 188] | 1.45 nM |
| AHDVPCPWGPF[1Nal]CPVNRPGC (linker 6-13-20 via TBMB) [Bicycle Compound 189] | 1.3 nM |
| AHDVPCP[1Nal]GPFWCP[Tle]NRPGC (linker 6-13-20 via TBMB) [Bicycle Compound 190] | 0.7 nM |
| AHDVPCP[1Nal]G[Aib]FWCP[Tle]N[hArg]PGC (linker 6-13-20 via TBMB) [Bicycle Compound 191] | 3.1 nM |
| AHDVPCP[1Nal]G[Aib]FWCP[Tle]NR[Aib]GC (linker 6-13-20 via TBMB) [Bicycle Compound 192] | 1.75 nM |
| Ac-[Sar][Sar]AHDVPCPWGPFWCPVNRPGC (linker 8-15-22 via TBMB) [Bicycle Compound 193] | 0.59 nM |
| Ac-[Sar][Sar]AADVPCPWGPFWCPVNRPGC (linker 8-15-22 via TBMB) [Bicycle Compound 195] | 1.01 nM |
| [Sar][Sar]A[dA]DVPCPWGPFWCPVNRPGC (linker 8-15-22 via TBMB) [Bicycle Compound 199] | 3.35 nM |
| Ac-[Sar][Sar]A[dD]DVPCPWGPFWCPVNRPGC (linker 8-15-22 via TBMB) [Bicycle Compound 200] | 4.1 nM |
| [Sar][Sar]AHAVPCPWGPFWCPVNRPGC (linker 8-15-22 via TBMB) [Bicycle Compound 205] | 1.8 nM |
| [Sar][Sar]AH[dA]VPCPWGPFWCPVNRPGC (linker 8-15-22 via TBMB) [Bicycle Compound 206] | 8.3 nM |
| [Sar][Sar]AHEVPCPWGPFWCPVNRPGC (linker 8-15-22 via TBMB) [Bicycle Compound 207] | 1.3 nM |
| [Sar][Sar]AH[dE]VPCPWGPFWCPVNRPGC (linker 8-15-22 via TBMB) [Bicycle Compound 208] | 2 nM |
| [Sar][Sar]AHDAPCPWGPFWCPVNRPGC (linker 8-15-22 via TBMB) [Bicycle Compound 214] | 22.5 nM |
| [Sar][Sar]AHD[dA]PCPWGPFWCPVNRPGC (linker 8-15-22 via TBMB) [Bicycle Compound 215] | 26 nM |
| [Sar][Sar]AHDVACPWGPFWCPVNRPGC (linker 8-15-22 via TBMB) [Bicycle Compound 218] | 1.27 nM |
| [Sar][Sar]AHDV[dA]CPWGPFWCPVNRPGC (linker 8-15-22 via TBMB) [Bicycle Compound 219] | 15 nM |
